Experimental data taken from US20220387556A1, “USE OF THE GDF-5 MUTANT FOR THE TREATMENT OF PAIN AND CARTILAGE DESTRUCTION” (Merck Patent GmbH, priority 2019, published 2022).
Like-named read-outs stand apart in the source and are kept apart here.

How the values were obtained:
OA patients = details: cited from earlier work
BMPR-IA = BMPR-IA (Homo sapiens, UniProt P36894); details: in vitro; cited from earlier work
BMPR-IB [1] = target: T1, BMPR-IB (Homo sapiens, UniProt O00238); details: in vitro; cited from earlier work
BMPR-IB [2] = target: T1, BMPR-IB; assay: in vitro binding affinity for BMPR-IB
Text: This can be achieved by specific substitutions of one or more amino acid residues relating to a BMPR-IB and/or BMPR-IA binding site in the amino acid sequence of a GDF-5 related protein.
The binding affinity of GDF-5 related proteins having specific substitutions is compared to the binding affinity of human wild-type GDF-5 related protein, in particular human wild-type GDF-5.

rabbit ACLT+pMx OA model = assay: rabbit ACLT+pMx OA model, static incapacitance test, comparison with Triamcinolone and anti-NGF-antibody (KK-rabbit-17-01); type: in vivo, New Zealand white (NZW) rabbits
Description: (§1) Baseline incapacitance measurement was made 2 times prior to surgery. OA was induced by ACLT+pMx knee surgery in rabbits in the right knee joint in week 0. […] Weight bearing was measured using a contact-free static incapacitance measurement whereby plates measure pressure put on the operated and injected right hindlimb in comparison to the left unoperated hindlimb. Data are percent weight put on the right over the left hindlimb, whereby 50% corresponds to equal loading of both legs and 0% to load on the unoperated left limb only. Effect size was compared to clinically effective Triamcinolone treatment. 1.41 mg Triamcinolone correspond to human equivalent dose calculation based on metabolic body weight, synovial fluid volume and cartilage surface area.
as §1, with “Effect size was compared to clinically effective Triamcinolone treatment. 1.41 mg Triamcinolone correspond to human equivalent dose calculation based on metabolic body weight, synovial fluid volume and cartilage surface area.” left out

[3] = test system: primary human meniscus cells; assay: NGF stimulated PGE2 release in primary human meniscus cells; type: cell-based; details: 10 ng/ml rhNGF, 2 days; 0.1 μM Dexamethasone, 0.1 μM Triamcinolone, 375 ng/ml anti-betaNGF antibody, 300 ng/ml R399E
Description: Primary meniscus cells from total knee replacement surgeries were freshly prepared one day post-surgery within the frame of an ethical permission. First, skin and muscle were removed to isolate the menisci. The menisci were transferred into a 10 cm dish filled with HAM's F12+1% P/S+1% Amphotericin B. The tissue was cut into small pieces of approximately 3×3 mm and transferred into a sterile beaker for digestion. Digestion was performed for 16 h in 50 ml of a 0.4% Collagenase in HAM's F12+1% P/S+1% Amphotericin solution at 37° C., 7.5% CO2 under constant stirring. After 16 h the solution was pipetted through a 100 μm filter followed by a 40 μm filter and then centrifuged for 5 min at 1400 g. The remaining pellet, containing the cells was resuspended in 20 ml of HAM's F12+1% P/S+1% Amphotericin+10% FCS. Cell number was counted, and cell viability was determined. Finally, 10,000 cells per well were seeded in a 96 well plate. Cells were cultivated up to 1 week to reach confluency. In between medium was exchanged once. […] The effect of the individual compounds was compared to cells which were stimulated with rhNGF only. After 2 days incubation, the supernatant was removed for determination of Prostaglandin E2 (PGE2) in the medium.

T1 sequence (O00238 14-502): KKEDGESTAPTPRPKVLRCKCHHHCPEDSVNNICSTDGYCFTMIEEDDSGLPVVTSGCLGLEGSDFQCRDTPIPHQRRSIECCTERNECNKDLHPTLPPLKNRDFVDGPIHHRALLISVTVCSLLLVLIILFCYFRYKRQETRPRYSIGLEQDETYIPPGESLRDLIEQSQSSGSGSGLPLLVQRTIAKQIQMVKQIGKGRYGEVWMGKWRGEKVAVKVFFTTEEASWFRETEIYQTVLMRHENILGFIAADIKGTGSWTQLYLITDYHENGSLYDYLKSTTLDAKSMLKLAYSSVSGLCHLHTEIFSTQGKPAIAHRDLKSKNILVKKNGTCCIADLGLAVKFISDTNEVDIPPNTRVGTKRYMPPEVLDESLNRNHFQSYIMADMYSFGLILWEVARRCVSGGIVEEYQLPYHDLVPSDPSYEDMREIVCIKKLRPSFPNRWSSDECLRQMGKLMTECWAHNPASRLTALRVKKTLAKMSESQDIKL
Sequence of BMPR-IA (P36894 24-532): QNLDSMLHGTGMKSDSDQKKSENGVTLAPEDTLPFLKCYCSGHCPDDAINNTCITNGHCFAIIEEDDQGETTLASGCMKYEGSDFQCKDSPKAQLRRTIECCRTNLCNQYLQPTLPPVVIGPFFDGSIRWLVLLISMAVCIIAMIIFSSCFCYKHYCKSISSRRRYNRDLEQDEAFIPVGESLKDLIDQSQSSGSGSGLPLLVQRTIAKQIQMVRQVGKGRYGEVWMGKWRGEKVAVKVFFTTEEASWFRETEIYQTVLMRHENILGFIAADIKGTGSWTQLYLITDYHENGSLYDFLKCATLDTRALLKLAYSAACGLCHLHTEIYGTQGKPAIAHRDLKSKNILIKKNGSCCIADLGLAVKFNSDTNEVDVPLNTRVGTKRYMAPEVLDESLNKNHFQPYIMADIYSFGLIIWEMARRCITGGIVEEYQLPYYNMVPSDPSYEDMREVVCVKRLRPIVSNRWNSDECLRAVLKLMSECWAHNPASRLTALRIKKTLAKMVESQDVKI

tanezumab: anti-NGF (nerve growth factor) antibody (tanezumab, Pfizer) under clinical development for OA
incidence of RPOA overall (OA patients; tanezumab 2.5 mg arm): 3.2%
incidence of RPOA overall (OA patients; tanezumab 5 mg arm): 6.3%

Wild-type GDF-5: morphogen, also known as bone morphogenetic protein-14 (BMP-14) or cartilage-derived morphogenetic protein-1 (CDMP-1)
Kd (BMPR-IA): 1 to 1.1 nM
Kd (BMPR-IB [1]): 0.008 to 0.027 nM
fold higher affinity for BMPR-IB as compared with BMPR-IA (BMPR-IB [2]): 40- to 120 fold

C[C@]12C=CC(=O)C=C1CC[C@H]1[C@@H]3C[C@@H](O)[C@](O)(C(=O)CO)[C@@]3(C)C[C@H](O)[C@@]12F [Triamcinolone]
symptomatic effect compared to placebo (incapacitance) (rabbit ACLT+pMx OA model; 1.41 mg IA in week 1, week 2 post surgery): −11.6%
effect on pain (incapacitance) (rabbit ACLT+pMx OA model; 1.41 mg IA once in week 1, 6 hours after injection): significant effect on pain
rhNGF induced PGE2 in the medium [3]: significantly inhibited
